From patent US20210071221

Key:
[1] = target: T1, Acceptor substrate 6 (SEQ ID NO: 9)
T1 chain: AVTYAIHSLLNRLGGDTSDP

[2] = target: T2, Acceptor substrate 2 (SEQ ID NO: 5)
T2 chain: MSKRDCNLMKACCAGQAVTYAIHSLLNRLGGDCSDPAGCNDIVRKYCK

[3] = target: T3, Acceptor substrate 1 (SEQ ID NO: 4)
T3 chain: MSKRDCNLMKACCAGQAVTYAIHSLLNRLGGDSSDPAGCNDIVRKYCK

B1: C-terminal 6X-His tagged recombinant nucleotide dependent glycosyltransferase protein (GT-CTH) (protein)
chain: MGYSENFIANDWFNVEVFNKNKYTLTNQENKDVTELWLQILKGLKFPNELKETVSYSKNLKELSLKTHAEVSVCIIAKNEQDSIRKCINSIYEFSDEIIFIDTGSIDSTKKIVKEIASEKVKIFDYTWQDDFSDARNYSIQKASKEWILIIDADEYVSSDELIKLRLLIDMLDRFKFKDSLRVSCAIYQLDNVITHGQSRLFRNNNKIKYYGLIHEELRNNKGLDPIFNVESEITFFHDGYKEILRKEKCERNIRLLAKMLEKEPDNVRWAYLYCRDSFSINSNIDFEKILLPFLIKNMDESISCENILLTNYTHLILFLITKKYIIDGKSSLASKCIEVLEKMLPNSSDVTFYKFLNKQHSLYEQQFEFLKEVIQFRKNNEYDQYSQIGCNLLHYDLLISGLLFDVKSYDYSYQYFLKLDLANYFSELEIPDEYKMLINKYRENESLEHHHHHH
in vitro glycosylation of the acceptor peptide, MALDI-TOF [1]: observed (M+H)^+ of di-glycosylated product as 2424.65 Da (Expected (M+H)^+ 2424.07 Da) and observed (M+H)^+ of mono-glycosylated product as 2262.57 Da
in vitro glycosylation of the acceptor peptide, LC-ESI-Q/TOF [2]: observed monoisotopic mass of di-glycosylated product as 5515.53 Da (Expected monoisotopic mass 5515.41 Da)
in vitro glycosylation of the acceptor peptide, LC-ESI-Q/TOF [3]: observed average mass of di-glycosylated product as 5503.47 Da (Expected average mass 5503.00 Da)
